Experimental data published in patent publication US7094599.

Biological target: MHC class II antigen on the Raji B cell line
Experiment: cell-based or functional assay

percent cytolysis of Raji (MHC class II+) cells by CTL expressing CD4:ζ: 5%
Substance: CD4:ζ (receptor)
